These substances were tested on T1, Cc1cc(=O)oc2cc(O[C@@H]3O[C@H](CO)[C@@H](O[C@@H]4O[C@H](CO)[C@@H](O)[C@H](O)[C@H]4O)[C@H](O)[C@H]3O)ccc12 (assay: purified protein). Settings: potassium phosphate pH 7.2, 30 °C (general assay; kinetics by cited protocol).
T1 construct: 604 residues, ~69 kDa; expressed in E. coli BL21 Gold (DE3)
Assay type: biochemical, uncultured bacterium

Row | Substance | Km | kcat [s⁻¹] | kcat/Km [M⁻¹ s⁻¹]
1 | CelA2 (CelA2-WT) (uncultured bacterium) | 48.37 (±2.43) μM | 0.00183 ± 0.00035 | 33.3
2 | CelA2 (CelA2-WT) (uncultured bacterium; H288F) | 8.95 (±1.62) μM | 0.00833 ± 0.000367 | 933
3 | CelA2 (CelA2-WT) (uncultured bacterium; H288F/N273D/N468S) | 9.66 (±1.19) μM | 0.0253 ± 0.000767 | 2620

— paper PMC4869107, “In vitro flow cytometry-based screening platform for cellulase engineering” (Scientific Reports, 2016)
